Assays:
[1] = biological target: NPR-A or NPR-B (mouse (endogenous in cardiomyocytes))
[2] = biological target: NPR-A or NPR-B (mouse (endogenous in cardiomyocytes)); remark: listed apart in the source

pPLB/PLB ratio (Western blot) in CMs isolated from the RZ of infarcted hearts after BNP injections, against saline (decreased) [1]: -32%
pPLB/PLB ratio (Western blot) in CMs isolated from the border zone (BZ) of infarcted hearts after BNP injections, against saline [1]: 2.7 fold
pPLB/PLB ratio (Western blot) in CMs isolated from unmanipulated adult hearts after BNP injections, against saline [1]: 1.5 fold
pPLB/PLB ratio (Western blot) in CMs isolated from unmanipulated neonatal hearts after BNP injections, against saline [1]: 3.5 fold
pPLB/PLB ratio (Western blot) in adult CMs isolated from C57BL/6 hearts and stimulated in vitro with BNP for 2–3 h, against untreated cells [2]: 2.1 fold
Substance: Brain Natriuretic Peptide, synthetic mouse BNP (1–45) peptide
